B1: TPR t1 (parent)
chain: GACCAAUCUGCCCUCAGAGCUCGAGAACAUCUUCGGAUGCAGAGGAGGCAGGCUUCGGUGGCGCGAUAGCGCCAACGUCCUCAACCUCCAAUGCAUCCCACCACAUGAUGAUGCCUGAAGAGCCUUGGUUUUUUG

In this data set the parent is B1. The experiment in a line: polymerase ribozyme fitness, log enrichment relative to wild type (log ratio); higher = more active; in vitro selection for triplet polymerase activity. The essentials: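 Mutant libraries of each subunit of a heterodimeric triplet polymerase ribozyme were built by PCR and transcribed. Each library went through one round of in vitro selection in triplicate: annealing with biotinylated primer, partner subunit and triplets, frozen incubation at −7 °C, gel excision of extended constructs, streptavidin-bead capture and RT-PCR. Input and output libraries were Illumina-sequenced; only genotypes with ≥10 input reads and ≥1 read per output were kept. Fitness is log2(genotype enrichment/wild-type enrichment), using inverse-variance-weighted replicate averages.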
Turning to A18G C56G C114A, the “polymerase ribozyme fitness (log ratio)” value is -4.99. With G65A C114G, the “polymerase ribozyme fitness (log ratio)” value is -7.73. The result for C79A U92C C98G C104A C114G reads -7.71; that for G10U U55A G71C, -1.11; that for A29U C73A C98A, -4.9. As for G10C C15G G69C, the figure is -4.46; as for C70A C73G G120C, -5.26.

Turning to G10A C12G U21C U106G C114G U116A, the “polymerase ribozyme fitness (log ratio)” value was -6.06. The result for G69U G93U G120A U125G U129G reads -0.716. As for A37C G45U G61C C123A, the figure is -3.45. As for U54G A91C G113U A121C, the figure is -2.85; as for C8A G35A C89U A95U U106A, -4.65.

As for G61U G69C C72U A111C, the “polymerase ribozyme fitness (log ratio)” value was -6.94. As to A18G C49A C64U C79U G120C G128U, the “polymerase ribozyme fitness (log ratio)” value was -3.3. As for A90C C104U, the figure is -0.65; as for G93U C104A, -2.9. The result for C4G G110A reads -2.16; that for A2U G35U, -6.73; that for C86U C88U, 0.0768. On to G42A C99U, for which the “polymerase ribozyme fitness (log ratio)” value was -6.05. As for A66G C97U U112G, the figure is -2.06; as for C62U G71U G120U, 0.0266. The result for G71A A100U reads -1.77; that for C34U C56A G71C U112A, -6.49.

Consider A2U C49A, for which the “polymerase ribozyme fitness (log ratio)” value was -2.86. The result for U78A U112A reads 1.06; that for C3A G60U, -1.28. Take C4U C98U G113U: the “polymerase ribozyme fitness (log ratio)” value is -3.82. As for C62U C104U A108C, the figure is -6; as for C22G C64U, -2.83; as for A41U G69U G120C, 0.831. As for A84U C114A U131A, the “polymerase ribozyme fitness (log ratio)” value was -0.993. As to C12U G44U, the “polymerase ribozyme fitness (log ratio)” value was -0.985. The result for C53A U54G C70U C86U C89G A121C U125A reads -2. As for C94U G113C, the figure is -2.26.

G61A A74C G120U: the “polymerase ribozyme fitness (log ratio)” value is -2.24. As for G47U G69C, the figure is -3.62. As for A16U G58U C123A, the figure is -2.18; as for C49U C72G C89U, -1.07. As for A27U C73A, the figure is -3.09; as for A29U C53A U54C C76U C85A U131C, -3.17. With C4U U112C, the “polymerase ribozyme fitness (log ratio)” value worked out at 1.38. As for C4A G36C G42C C49A C124U, the figure is -4.12; as for C53A U78C, -0.332. As to G57A C94U, the “polymerase ribozyme fitness (log ratio)” value is -2.53. Take U30C U78G: the “polymerase ribozyme fitness (log ratio)” value is -3.78. The result for G23U A24C C31G C72U A83C A90U G93A G107U U109A reads -6.51; that for U14G A68G U112G, -5.15; that for U96G G117A A119G, 0.491. In the case of C40G C49U G69A U78A, the “polymerase ribozyme fitness (log ratio)” value is -4.96. As for U14A G44C G61U C85G U96C G113U, the figure is -6.21; as for G42A C56A, -1.64. The result for C115U G127C reads -2.76. For A6U A46C C85G G113A G135C, the “polymerase ribozyme fitness (log ratio)” value was -3.74. As for G60C C86A G117C C123U, the figure is -6.38.

Take C73U C85U: the “polymerase ribozyme fitness (log ratio)” value was -0.444.

On to C13U C73G C82A U87C C101A G110C G127A, for which the “polymerase ribozyme fitness (log ratio)” value was -6.6. The result for C8G C13U A16U G71A reads -0.033; that for U38G C97U, -4.33; that for U9C C11U G47C U96G, -3.05. Turning to C72G U133G, the “polymerase ribozyme fitness (log ratio)” value is 0.34.

For C20A A91G U109G, the “polymerase ribozyme fitness (log ratio)” value is -4.02.

With G10A G61C U87A C123A, the “polymerase ribozyme fitness (log ratio)” value is -0.382. On to C11U C22G A26C, for which the “polymerase ribozyme fitness (log ratio)” value is -3.57. As for G39A A68G C115G U130A, the figure is -6.03; as for C34A G61U U112G C123A, -4.54. As for A50C C53U C72U G127A U133A, the “polymerase ribozyme fitness (log ratio)” value was -3.63. As for A2U A16G C72A, the figure is -3.41.

As to G19A G60C A75U A90C C98U C114A, the “polymerase ribozyme fitness (log ratio)” value is -3.78. Take U109G C115A: the “polymerase ribozyme fitness (log ratio)” value was -7.19. Turning to G47C G61A G69A A111C U116A, the “polymerase ribozyme fitness (log ratio)” value was -6.11. Turning to A6U U30C G93U G120U, the “polymerase ribozyme fitness (log ratio)” value was -3.6. As for U55G U116G, the figure is -2.12; as for G58A G63A C98U U112A, -4.56. The result for G17A G48C C124A G128A reads -3.31; that for C31G G39A G107C U133G, -2.1; that for C88U G122A, -1.42.

For the variant G17U U130A, the “polymerase ribozyme fitness (log ratio)” value is -3.3.

In the case of C76G U87G, the “polymerase ribozyme fitness (log ratio)” value is -0.0658.

In the case of C12G A41C, the “polymerase ribozyme fitness (log ratio)” value was -0.0245. The result for C20G C72U reads -4.16. As for U54G C56G A83C, the figure is -2.03; as for C3A U7C G113C, -2.78. The result for C11G A83U U106C reads -0.637.

The values are drawn from the RNAGym collection of RNA variant scans (doi:10.1073/pnas.2313332121).
